Experimental findings from patent US20170029844A1 are described below.

For this assay, the target named is Spodoptera frugiperda ABCc2 transporter (Spodoptera frugiperda). In words: cell-based or functional assay.

TIC105 toxin (wild type, unmodified) showed a relative fluorescence of SYTOX Green, Sf9 cells expressing the SfABCc2 transporter (relative fluorescence) of 57200.
